Assay results: the RNAGym collection of RNA variant scans (doi:10.1093/molbev/msab373)

B1: Azoarcus group I ribozyme (parent)
chain: GUGCCUUGCGCCGGGAAACCACGCAAGGGAUGGUGUCAAAUUCGGCGAAACCUAAGCGCCCGCCCGGGCGUAUGGCAACGCCGAGCCAAGCUUCGGCGCCUGCGCCGAUGAAGGUGUAGAGACUAGACGGCACCCACCUAAGGCAAACGCUAUGGUGAAGGCAUAGUCCAGGGAGUGGCGAAAGUCACACAAACCGG

Variants of: B1
Assay: reverse-splicing fitness (ratio to wild type); higher = more active; in vitro selection; Mg2+ level not given
How it was run: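 An in vitro group I ribozyme library with randomized positions was T7-transcribed and gel-purified. In triplicate, 10 pmol RNA in EPPS pH 7.5 was reacted with 50 pmoles of a 30-nt RNA substrate for 1 h at 37 °C across several added MgCl2 levels (1–48 mM), then stopped with EDTA. Products were reverse transcribed from a substrate-complementary primer, PCR-amplified and sequenced (HiSeq 4000). Fitness is a variant's read proportion after selection over that before, normalised to wild type.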

Row | Variant | reverse-splicing fitness
1 | GUGCCUUGCGCCGGGAAACCACGCAAGGGAUGGUGUCAAAUUCGGCGAAACCUAAGCGCCCGCCCGGGCGUAUGGCAACGCUGAGCCAAGCUUCGGCGCCUGCGCCGAUGUAGGUGUAGAGACUAGACGGCACCCACCUAAGGCGAACGAUAUGGUGAAGGCAUAGUCCAGGGAGCGGCGAAAGUCACACAAACCGG | 0.0426
2 | GUGCCUUGCGCCGGGAAACCACGCAAGGGAUGGUGUCAAAUUCGGCGAAACCUAAGCGCCCGCCCGGGCGUAUGGCAACGCUGAGCCAAGCUUCGGCGCCUGCGCCGAUGUAGGUGUAGAGACUAGACGGCACCCACCUAAGGCGAACGAUAUGGUGAAGGCAUAGUCCAGGGAGGGGCGAAAGUCACACAAACCGG | 0.00953
3 | GUGCCUUGCGCCGGGAAACCACGCAAGGGAUGGUGUCAAAUUCGGCGAAACCUAAGCGCCCGCCCGGGCGUAUGGCAACGCUGAGCCAAGCUUCGGCGCCUGCGCCGAUGUAGGUGUAGAGACUAGACGGCACCCACCUAAGGCGAACGGUAUGGUGAAGGCAUAGUCCAGGGAGUGGCGAAAGUCACACAAACCGG | 0.0326
4 | GUGCCUUGCGCCGGGAAACCACGCAAGGGAUGGUGUCAAAUUCGGCGAAACCUAAGCGCCCGCCCGGGCGUAUGGCAACGCUGAGCCAAGCUUCGGCGCCUGCGCCGAUGUAGGUGUAGAGACUAGACGGCACCCACCUAAGGCGAACGGUAUGGUGAAGGCAUAGUCAAGGGAGUGGCGAAAGUCACACAAACCGG | 0.00815
5 | GUGCCUUGCGCCGGGAAACCACGCAAGGGAUGGUGUCAAAUUCGGCGAAACCUAAGCGCCCGCCCGGGCGUAUGGCAACGCUGAGCCAAGCUUCGGCGCCUGCGCCGAUGUAGGUGUAGAGACUAGACGGCACCCACCUAAGGCGAACGGUAUGGUGAAGGCAUAGUCAAGGGAGAGGCGAAAGUCACACAAACCGG | 0.0125
6 | GUGCCUUGCGCCGGGAAACCACGCAAGGGAUGGUGUCAAAUUCGGCGAAACCUAAGCGCCCGCCCGGGCGUAUGGCAACGCUGAGCCAAGCUUCGGCGCCUGCGCCGAUGUAGGUGUAGAGACUAGACGGCACCCACCUAAGGCGAACGGUAUGGUGAAGGCAUAGUCAAGGGAGCGGCGAAAGUCACACAAACCGG | 0.0112
7 | GUGCCUUGCGCCGGGAAACCACGCAAGGGAUGGUGUCAAAUUCGGCGAAACCUAAGCGCCCGCCCGGGCGUAUGGCAACGCUGAGCCAAGCUUCGGCGCCUGCGCCGAUGUAGGUGUAGAGACUAGACGGCACCCACCUAAGGCGAACGGUAUGGUGAAGGCAUAGUCAAGGGAGGGGCGAAAGUCACACAAACCGG | 0.0074
8 | GUGCCUUGCGCCGGGAAACCACGCAAGGGAUGGUGUCAAAUUCGGCGAAACCUAAGCGCCCGCCCGGGCGUAUGGCAACGCUGAGCCAAGCUUCGGCGCCUGCGCCGAUGUAGGUGUAGAGACUAGACGGCACCCACCUAAGGCGAACGGUAUGGUGAAGGCAUAGUCGAGGGAGUGGCGAAAGUCACACAAACCGG | 0.00754
9 | GUGCCUUGCGCCGGGAAACCACGCAAGGGAUGGUGUCAAAUUCGGCGAAACCUAAGCGCCCGCCCGGGCGUAUGGCAACGCUGAGCCAAGCUUCGGCGCCUGCGCCGAUGUAGGUGUAGAGACUAGACGGCACCCACCUAAGGCGAACGGUAUGGUGAAGGCAUAGUCGAGGGAGAGGCGAAAGUCACACAAACCGG | 0.00984
10 | GUGCCUUGCGCCGGGAAACCACGCAAGGGAUGGUGUCAAAUUCGGCGAAACCUAAGCGCCCGCCCGGGCGUAUGGCAACGCUGAGCCAAGCUUCGGCGCCUGCGCCGAUGUAGGUGUAGAGACUAGACGGCACCCACCUAAGGCGAACGGUAUGGUGAAGGCAUAGUCGAGGGAGCGGCGAAAGUCACACAAACCGG | 0.0116
11 | GUGCCUUGCGCCGGGAAACCACGCAAGGGAUGGUGUCAAAUUCGGCGAAACCUAAGCGCCCGCCCGGGCGUAUGGCAACGCUGAGCCAAGCUUCGGCGCCUGCGCCGAUGUAGGUGUAGAGACUAGACGGCACCCACCUAAGGCGAACGGUAUGGUGAAGGCAUAGUCGAGGGAGGGGCGAAAGUCACACAAACCGG | 0.00579
12 | GUGCCUUGCGCCGGGAAACCACGCAAGGGAUGGUGUCAAAUUCGGCGAAACCUAAGCGCCCGCCCGGGCGUAUGGCAACGCUGAGCCAAGCUUCGGCGCCUGCGCCGAUGUAGGUGUAGAGACUAGACGGCACCCACCUAAGGCGAACGGUAUGGUGAAGGCAUAGUCUAGGGAGUGGCGAAAGUCACACAAACCGG | 0.00863
13 | GUGCCUUGCGCCGGGAAACCACGCAAGGGAUGGUGUCAAAUUCGGCGAAACCUAAGCGCCCGCCCGGGCGUAUGGCAACGCUGAGCCAAGCUUCGGCGCCUGCGCCGAUGUAGGUGUAGAGACUAGACGGCACCCACCUAAGGCGAACGGUAUGGUGAAGGCAUAGUCUAGGGAGAGGCGAAAGUCACACAAACCGG | 0.0114
14 | GUGCCUUGCGCCGGGAAACCACGCAAGGGAUGGUGUCAAAUUCGGCGAAACCUAAGCGCCCGCCCGGGCGUAUGGCAACGCUGAGCCAAGCUUCGGCGCCUGCGCCGAUGUAGGUGUAGAGACUAGACGGCACCCACCUAAGGCGAACGGUAUGGUGAAGGCAUAGUCUAGGGAGCGGCGAAAGUCACACAAACCGG | 0.0115
15 | GUGCCUUGCGCCGGGAAACCACGCAAGGGAUGGUGUCAAAUUCGGCGAAACCUAAGCGCCCGCCCGGGCGUAUGGCAACGCUGAGCCAAGCUUCGGCGCCUGCGCCGAUGUAGGUGUAGAGACUAGACGGCACCCACCUAAGGCGAACGGUAUGGUGAAGGCAUAGUCUAGGGAGGGGCGAAAGUCACACAAACCGG | 0.00654
